Laboratory results taken from US20190374662A1 (published 2019).
Changes are numbered by the printed parent chain. Numbers in names are those of the source.

T1: CEACAM6 protein on 721.221 cells (human, UniProt P40199 35-142)
T1 construct: also called CD66c
T1 sequence: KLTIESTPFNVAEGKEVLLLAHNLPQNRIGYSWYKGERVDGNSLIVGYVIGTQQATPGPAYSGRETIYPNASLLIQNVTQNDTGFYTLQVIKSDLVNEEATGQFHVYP

T2: CD99-Ig fusion protein (control) (human, UniProt P14209 23-122, limits assumed)
T2 construct: extracellular domain; Control fusion protein produced in COS-7 cells; not shown: human IgG1 (Fc portion)
T2 sequence (looked up): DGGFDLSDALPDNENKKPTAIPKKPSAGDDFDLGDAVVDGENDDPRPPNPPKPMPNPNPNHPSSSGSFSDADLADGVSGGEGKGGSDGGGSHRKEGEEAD

B1: CEACAM1-Ig fusion protein (extracellular portion of CEACAM1 fused to the Fc portion of human IgG1) (Fc fusion)
chain: QLTTESMPFNVAEGKEVLLLVHNLPQQLFGYSWYKGERVDGNRQIVGYAIGTQQATPGPANSGRETIYPNASLLIQNVTQNDTGFYTLQVIKSDLVNEEATGQFHVYP
notes: also called CCM1-Ig; soluble CEACAM1-Ig; not shown: Fc portion of human IgG1
B2: CCM1-RQ43,44SL (CEACAM1 with S and L at positions 43 and 44 instead of R and Q) (receptor)
chain: B1 chain with R43S, Q44L
notes: also called CEACAM1-RQ43,44SL
B3: CCM1-R43A (CEACAM1 with 43R changed to 43A) (receptor)
chain: B1 chain with R43A
notes: The expression level was lower than that of the other transfectants; also called CEACAM1-R43A
B4: CCM6-S43R (CEACAM6 with 43S changed to 43R) (receptor)
chain: T1 sequence with S43R
notes: also called CEACAM6-S43R
B5: CCM6-L44Q (CEACAM6 with 44L changed to 44Q) (receptor)
chain: T1 sequence with L44Q
notes: also called CEACAM6-L44Q
B6: CCM1-Q44L (CEACAM1 with 44Q changed to 44L) (receptor)
chain: B1 chain with Q44L
notes: also called CEACAM1-Q44L
B7: CCM6-SL43,44RQ (CEACAM6 with R and Q at positions 43 and 44 instead of S and L) (receptor)
chain: T1 sequence with S43R, L44Q
notes: also called CEACAM6-SL43,44RQ

Tests used:
Experiment in all cases: flow cytometry on stably transfected 721.221 cells
[1] = target: T1, CEACAM6 protein on 721.221 cells
[2] = target: B1
[3] = target: T2, CD99-Ig fusion protein (control)

Row | binding result [1] | binding result [2] | binding result [3] | Binder
1 | no binding | – | – | B1
2 | – | no binding | no binding | B2
3 | – | no binding | – | B3
4 | – | no binding | – | B4
5 | – | no binding | – | B5
6 | – | no binding | – | B6
7 | – | – | no binding | B7
